Experimental findings from patent US20220372154A1 (APEXIGEN, published 2022) are described below.

One may read the EC50 as the concentration needed to bring the measured effect to its halfway point. Usually IC50 stands for the concentration that inhibits the measured activity by half. The term Kd denotes the equilibrium constant for the complex coming apart.

Changes are numbered by the printed parent chain.

Test [1] has as its target T1, human TNFR2 expressed on cells (human, UniProt P20333 23-461).
T1 construct: whole, on cells; also called hTNFR2 (cell); CHO-TNFR2
T1 sequence (looked up): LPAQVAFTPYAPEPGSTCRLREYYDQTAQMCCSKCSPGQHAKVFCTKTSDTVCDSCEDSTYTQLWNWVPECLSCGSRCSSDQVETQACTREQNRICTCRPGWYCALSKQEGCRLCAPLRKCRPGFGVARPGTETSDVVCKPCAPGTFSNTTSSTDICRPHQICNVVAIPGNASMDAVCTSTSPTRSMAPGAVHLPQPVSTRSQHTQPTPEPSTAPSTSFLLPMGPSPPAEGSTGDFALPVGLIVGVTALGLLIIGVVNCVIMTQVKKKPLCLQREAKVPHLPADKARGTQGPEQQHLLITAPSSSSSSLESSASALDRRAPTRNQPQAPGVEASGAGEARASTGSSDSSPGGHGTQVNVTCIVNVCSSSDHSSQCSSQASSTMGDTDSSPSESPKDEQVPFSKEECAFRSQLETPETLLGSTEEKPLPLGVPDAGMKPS
In words: flow cytometry, cell-expressed human TNFR2.

Test [2] deals with T2, human TNFR2-His tagged protein (soluble) (human, UniProt P20333 23-257).
T2 construct: also called hTNFR2 (soluble); soluble TNFR2-His; not shown: His tag
T2 sequence (looked up): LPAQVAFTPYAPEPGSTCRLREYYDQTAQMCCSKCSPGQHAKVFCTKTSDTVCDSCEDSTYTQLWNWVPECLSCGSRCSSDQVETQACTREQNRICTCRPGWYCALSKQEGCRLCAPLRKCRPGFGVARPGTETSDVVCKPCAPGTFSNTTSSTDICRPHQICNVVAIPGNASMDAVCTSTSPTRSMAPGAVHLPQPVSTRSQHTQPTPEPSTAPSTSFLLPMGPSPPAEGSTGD
The test can be described thus: ELISA, soluble human TNFR2. For orientation: An ELISA detects its analyte on a solid surface through an enzyme-linked reagent.

The target of test [3] is T1, human TNFR2 expressed on cells. In words: blocking of biotinylated TNF-α on TNFR2-CHO cells, flow cytometry. On the procedure:
TNFR2-overexpressing CHO cells were plated at 100,000 cells per well. Cells were incubated with the indicated antibodies for 30 minutes on ice. […] Cells were analyzed using Cytoflex or MACSQuant flow cytometer. Assay was repeated twice.
(A flow cytometer gives signals particle by particle.)

In test [4] the target is T3, cynomolgus TNFR2-His tagged protein (cynomolgus, UniProt A0A2K5VET2 132-366).
T3 construct: also called Cyno TNFR2; cynomolgus TNFR2 protein; not shown: His tag
T3 sequence: T2 sequence (looked up) with S16G, S36P, P117Q, N164H, E210A, S216G, M223V
In words: ELISA, cynomolgus TNFR2.

For test [5], the target named is T4, TNFR-Fc (UniProt P20333 23-257, limits assumed).
T4 construct: Printed only as TNFR-Fc; not shown: Fc part
T4 sequence (looked up): T2 sequence (looked up)
The test can be described thus: TNF-α blocking ELISA (soluble).

Test [6] deals with T1, human TNFR2 expressed on cells. The test can be described thus: cell binding on TNFR2-overexpressing (OE) cells.
In test [7] the target is T2, human TNFR2-His tagged protein (soluble). The test can be described thus: ELISA on coated human TNFR2-His. The method in brief: (§1)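 TNFR2-His ELISAs: human or cynomolgus protein coated at 1 μg/mL overnight at 4 °C, BSA-blocked, antibodies 1 h RT, anti-human HRP, TMB 3–5 min. Flow: 200,000 human TNFR2-CHO cells, antibody 1 h, anti-human IgG BV421 20 min. Blocking ELISA: TNFR-Fc coated 1 ug/mL, antibodies 1 h RT, TMB 5–7 min.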

In test [8] the target is T4, TNFR-Fc. The test can be described thus: TNF-α blocking ELISA on coated TNFR-Fc. The protocol: In FIGS. 3A-3B, human (3A) or cynomolgus (3B) TNFR2-His tagged protein was coated on 96-well ELISA plates at 1 μg/mL and incubated overnight at 4° C. Plates were washed and blocked using 1% BSA. Antibodies were added for 1 hour at room temperature (RT), washed, and detected using anti-Human HRP. Assay was developed using TMB substrate for 3-5 minutes. In FIG. 3C, FACS binding was performed on CHO cells that were engineered to express human TNFR2. Briefly, antibodies were incubated with 200,000 cells in MACS buffer for 1 hour followed by wash and detection using anti-human IgG BV421 for 20 minutes. Samples were analyzed using Cytoflex or MACSQuant flow cytometers. In FIG. 3D, ligand blocking ELISA was performed by coating plates with 1 ug/mL TNFR-Fc overnight at 4° C. Plates were washed, blocked and antibodies were incubated for 1 hr at RT. […] Assay was developed using TMB substrate for 5-7 minutes.

In test [9] the target is T3, cynomolgus TNFR2-His tagged protein. The test can be described thus: ELISA on coated cynomolgus TNFR2-His. The method in brief:
as §1

Test [10] concerns the target T1, human TNFR2 expressed on cells. In words: flow cytometry on CHO cells expressing human TNFR2. The gist of the method: as §1
Test [11] addresses T5, TNFR2 CRD4 peptide (peptide 5; aa 146-174 of mature TNFR2) (human).
T5 construct: Range counted on mature TNFR2; also called peptide five; bin 5
T5 peptide: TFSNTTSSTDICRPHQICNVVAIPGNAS
In words: peptide-binding ELISA (potential peptide bin).

For test [12], the target named is T6, soluble mouse TNFR2 (mouse, UniProt P25119 23-258, limits assumed).
T6 sequence (looked up): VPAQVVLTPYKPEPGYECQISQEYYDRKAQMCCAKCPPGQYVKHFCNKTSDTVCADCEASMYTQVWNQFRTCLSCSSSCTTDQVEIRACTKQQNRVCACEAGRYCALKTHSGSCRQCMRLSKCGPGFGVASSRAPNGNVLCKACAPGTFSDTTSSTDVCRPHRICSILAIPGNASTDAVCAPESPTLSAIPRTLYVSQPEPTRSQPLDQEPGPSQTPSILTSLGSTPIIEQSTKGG
The test can be described thus: binding screen on soluble mouse TNFR2 (mouse cross-reactivity).

B1: humanized antibody h600_25_9 (antibody, V domains shown)
VH: EVQLVESGGGLVQPGGSLRLSCAASGFSLSTYDINWVRQAPGKGLEWVGIIYTGGITNFANWAKGRFTISRDNSKNTLYLQMNSLRAEDTAVYYCARGGYDSEGYVYPDAFDPWGQGTLVTVSS
VL: DIQMTQSPSSLSASVGDRVTITCQASESISNLLAWYQQKPGKAPKLLIYRASILTSGVPSRFSGSGSGTDFTLTISSLQPEDFATYYCQHGYTGTNVQNVFGGGTKVEIK
For the molecule B1, the values for the concentration giving a half-maximal response (EC50) in test [1], in test [2] and in [4] were 0.587 nM, 0.051 nM and 0.046 nM, respectively. The IC50 in test [3] came out at 7.02 nM; in test [5], 0.465 nM. Further, binding in test [6] was characterised by a dissociation constant (Kd) of 0.387 nM.

B2: chimeric antibody clone 25-31 (rab600_25_31) (antibody, V domains shown)
VH: QEQLKESGGGLVTPGTPLTLTCTASGFSLSSYDMSWVRQAPGKGLEWIGYIWSSGSAYYATWAEGRFTISKTSTTVGLKITSPTTEDTATYFCARRYVGSSYDTWGQGTLVTVSS
VL: AVLTQTPSPVSAAVGGTVTISCQSSQSVSNNNYLSWYQQKPGQPPKLLIYAASYLASGVPPRFSGSGSGTQFTLTISGVQCDDAATYYCLGDYDNDIDHAFGGGTEVVVK
On to B2, for which the EC50 in test [7] worked out at 0.0704 nM; in test [9], 0.038 nM; in test [10], 3.15 nM. In [8], this molecule yielded an IC50 of 4.13 nM. In addition, the binding result is “binds” in test [11] and “no binding” in [12].

B3: chimeric antibody clone 24-124 (rab600_24_124) (antibody, V domains shown)
VH: QEQLVESGGGLVTLGGSLKLSCKASGIDFSSYGISWVRQAPGKGLEWIAYIYPDYGSTDYATWVNGRFTISLDNAQNTVFLQMTSLTAADTATYFCASGYASSSGYYDPKYFGLWGPGTLVTVSS
VL: IKMTQTPASVSAAVGGTVTINCRASEDIESYLAWYQQKPGQPPKLLIYDASDLASGVPSRVKGSGSGTEFTLTISGVRCDDAATYYCQHGFYTSRSDSVFGGGTEVVVK
In the case of B3, the concentration giving a half-maximal response (EC50) in test [7] came out at 0.137 nM; in test [9] it was 0.0882 nM; in [10] it was 0.179 nM. This molecule also returned a 50% inhibitory concentration (IC50) in [8] of 2.54 nM. Also, the results for the binding result in [11] and in [12] were “binds” and “no binding”, respectively.

B4: humanized antibody h600_24_124 (antibody, V domains shown)
VH: EVQLVESGGGLVQPGGSLRLSCAASGIDFSSYGISWVRQAPGKGLEWVAYIYPDYGSTDYATWVNGRFTISLDNSKNTLYLQMNSLRAEDTAVYYCASGYASSSGYYDPKYFGLWGQGTLVTVSS
VL: DIQMTQSPSSLSASVGDRVTITCRASEDIESYLAWYQQKPGKAPKLLIYDASDLASGVPSRFSGSGSGTDFTLTISSLQPEDFATYYCQHGFYTSRSDSVFGGGTKVEIK
Regarding B4, the EC50 is 0.408 nM in test [1], 0.098 nM in test [2] and 0.058 nM in test [4]. The half-inhibitory concentration (IC50) in test [3] came out at 0.567 nM; in test [5], 2.29 nM. This molecule had a Kd in [6] of 0.291 nM.

B5: humanized antibody h600_HB_28B7.3 (antibody, V domains shown)
VH: EVQLVESGGGLVQPGGSLRLSCAASGFSLNSHYMIWVRQAPGKGLEWVGIITSSDYIYYARWAKGRFTISRDNSKNTLYLQMNSLRAEDTAVYYCARYNYDDDGELFNLWGQGTLVTVSS
VL: DIQMTQSPSSLSASVGDRVTITCQSSQSIDANNDLAWYQQKPGKAPKLLIYLASKLASGVPSRFSGSGSGTDFTLTISSLQPEDFATYYCLGGYDDDADNTFGGGTKVEIK
notes: also called h600_23_28B7
For the molecule B5, the EC50 in test [1] came out at 0.28 nM; in test [2], 0.24 nM; in [4], 0.211 nM. The results for the 50% inhibitory concentration (IC50) in [3] and in [5] were 0.379 nM and 2.46 nM, respectively. The molecule also showed a Kd in [6] of 0.13 nM.

B6: humanized antibody h600_24_2 (antibody, V domains shown)
VH: EVQLVESGGGLVQPGGSLRLSCAASGFSFSVSYWICWVRQAPGKGLEWVACTDGGDGSSYYASWVNGRFTISRDNSKNTLYLQMNSLRAEDTAVYYCARDRSDVFNLWGQGTLVTVSS
VL: DIQMTQSPSSLSASVGDRVTITCQAGQSIDSNLAWYQQKPGKAPKLLIYRASTLASGVPSRFSGSGSGTDFTLTISSLQPEDFATYYCQSFYVTISAMVDYPFGGGTKVEIK
For B6, the results for the 50% effective concentration (EC50) in [1], in test [2] and in test [4] were 0.377 nM, 0.149 nM and 0.131 nM, respectively. Besides, the concentration for half-maximal inhibition (IC50) in [3] turned out to be 0.447 nM; in test [5], 3.52 nM. In test [6], this molecule had a Kd of 0.245 nM.

B7: chimeric antibody clone 25-103 (rab600_25_103) (antibody, V domains shown)
VH: QEQLKESGGGLVTPGTPLTLTCTVSGIDLSSYAMGWVRQAPGKGLEYIGFIDTGGSTYYANWAKGRFTISRTSTTVDLKIASPTTEDAATYFCANVGARMYLWGPGTLVTVSS
VL: DVVMTQTPASVEAAVGGTVTINCQASQSISNLLAWYQQKPGQPPKLLIYRASTLESGVPSRFKGSGSGTEFTLTISDLECADAATYYCQCSYYGGSYIGAFGGGTEVVVK
With B7, the figures for the 50% effective concentration (EC50) in [7], in test [9] and in test [10] were 0.0443 nM, 0.000348 nM and 0.946 nM, respectively. Further, the binding result in [11] and in test [12] was “binds” in each case.

B8: humanized antibody h600_HB_55F6.6 (antibody, V domains shown)
VH: EVQLVESGGGLVQPGGSLRLSCAASGFSFTNNYYMCWVRQAPGKGLEWVGCIYPSIVGPTYYANWAKGRFTISRDNSKNTLYLQMNSLRAEDTAVYYCVRDRYDDYGDYFNLWGQGTLVTVSS
VL: DIQMTQSPSSLSASVGDRVTITCQASQSIYNYLSWYQQKPGKAPKRLIYYASTLASGVPSRFSGSGSGTDFTLTISSLQPEDFATYYCQSNSGVNGNRYGNAFGGGTKVEIK
notes: also called 55F6.1
In the case of B8, the results for the EC50 in test [1], in test [2] and in test [4] were 0.672 nM, 0.131 nM and 0.109 nM, respectively. The IC50 amounted to 0.566 nM in [3] and 3.81 nM in [5]. The Kd in test [6] is 0.539 nM.
